Assay results published in paper doi:10.1101/2021.08.20.457142.

B1: MKK7 D-site peptide (second D-site) / JNK1 alpha1 (MAPK8 isoform 1) L198A, full length (parent complex)
chain 1: SQPQRPRPTLQLPLANEAFEQP
chain 2: MSRSKRDNNFYSVEIGDSTFTVLKRYQNLKPIGSGAQGIVCAAYDAILERNVAIKKLSRPFQNQTHAKRAYRELVLMKCVNHKNIIGLLNVFTPQKSLEEFQDVYIVMELMDANLCQVIQMELDHERMSYLLYQMLCGIKHLHSAGIIHRDLKPSNIVVKSDCTLKILDFGLARTAGTSFMMTPYVVTRYYRAPEVIAGMGYKENVDLWSVGCIMGEMVCHKILFPGRDYIDQWNKVIEQLGTPCPEFMKKLQPTVRTYVENRPKYAGYSFEKLFPDVLFPADSEHNKLKASQARDLLSKMLVIDASKRISVDEALQHPYINVWYDPSEAEAPPPKIPDKQLDEREHTIEEWKELIYKEVMDLEERTKNGVIRGQPSPLAQVQQ

Variants of: B1

Variant | screen value
chain 1 R5A, chain 1 N16A | 0.479 Z-score of the enrichment rate within one screen of 711 sequences
chain 1 P13A, chain 1 L14A | 0.556 Z-score of the enrichment rate within one screen of 711 sequences
chain 1 L14A, chain 1 N16A | 0.658 Z-score of the enrichment rate within one screen of 711 sequences
chain 1 Q11A, chain 1 L12A | -0.605 Z-score of the enrichment rate within one screen of 711 sequences
chain 1 R7A, chain 1 T9A | 0.112 Z-score of the enrichment rate within one screen of 711 sequences
chain 1 P3S, chain 1 Q4K | 1.43 Z-score of the enrichment rate within one screen of 711 sequences
chain 1 P3A, chain 1 L14A | 0.559 Z-score of the enrichment rate within one screen of 711 sequences
chain 1 R7A, chain 1 Q11A | 0.044 Z-score of the enrichment rate within one screen of 711 sequences
chain 1 P6R | 1.25 Z-score of the enrichment rate within one screen of 711 sequences
chain 1 P6W | 1.02 Z-score of the enrichment rate within one screen of 711 sequences
chain 1 P6G | 0.655 Z-score of the enrichment rate within one screen of 711 sequences
chain 1 P6S | 0.764 Z-score of the enrichment rate within one screen of 711 sequences
chain 1 P6E | 1.2 Z-score of the enrichment rate within one screen of 711 sequences
chain 1 P6D | 0.975 Z-score of the enrichment rate within one screen of 711 sequences
chain 1 P6I | 1.35 Z-score of the enrichment rate within one screen of 711 sequences
chain 1 P6A, chain 1 Q11A | 1.17 Z-score of the enrichment rate within one screen of 711 sequences
chain 1 P3A, chain 1 L10A | -0.251 Z-score of the enrichment rate within one screen of 711 sequences
chain 1 T9A, chain 1 N16A | 0.774 Z-score of the enrichment rate within one screen of 711 sequences
chain 1 P8R | 0.631 Z-score of the enrichment rate within one screen of 711 sequences
chain 1 P8H | 0.889 Z-score of the enrichment rate within one screen of 711 sequences
chain 1 P8Y | 0.574 Z-score of the enrichment rate within one screen of 711 sequences
chain 1 P8T | 0.655 Z-score of the enrichment rate within one screen of 711 sequences
chain 1 P8S | 0.564 Z-score of the enrichment rate within one screen of 711 sequences
chain 1 P8D | 0.613 Z-score of the enrichment rate within one screen of 711 sequences
chain 1 P8G | 0.304 Z-score of the enrichment rate within one screen of 711 sequences

Variant | screen value
chain 1 P8A, chain 1 N16A | 0.523 Z-score of the enrichment rate within one screen of 711 sequences
chain 1 Q4A, chain 1 P6A | 1.09 Z-score of the enrichment rate within one screen of 711 sequences
chain 1 P3T | 1.7 Z-score of the enrichment rate within one screen of 711 sequences
chain 1 P3A | 1.42 Z-score of the enrichment rate within one screen of 711 sequences
chain 1 P3Y | 1.41 Z-score of the enrichment rate within one screen of 711 sequences
chain 1 P3R | 1.66 Z-score of the enrichment rate within one screen of 711 sequences
chain 1 P3L | 1.07 Z-score of the enrichment rate within one screen of 711 sequences
chain 1 P3C | 1.42 Z-score of the enrichment rate within one screen of 711 sequences
chain 1 P3K | 1.42 Z-score of the enrichment rate within one screen of 711 sequences
chain 1 P3G | 1.4 Z-score of the enrichment rate within one screen of 711 sequences
chain 1 P3H | 1.27 Z-score of the enrichment rate within one screen of 711 sequences
chain 1 P3E | 1.21 Z-score of the enrichment rate within one screen of 711 sequences
chain 1 L10D | -0.874 Z-score of the enrichment rate within one screen of 711 sequences
chain 1 L10H | -0.321 Z-score of the enrichment rate within one screen of 711 sequences
chain 1 L10K | -0.134 Z-score of the enrichment rate within one screen of 711 sequences
chain 1 L10I | 0.256 Z-score of the enrichment rate within one screen of 711 sequences
chain 1 L10E | -0.301 Z-score of the enrichment rate within one screen of 711 sequences
chain 1 L10W | -0.417 Z-score of the enrichment rate within one screen of 711 sequences
chain 1 L10Q | -0.301 Z-score of the enrichment rate within one screen of 711 sequences
chain 1 L10M | 1.08 Z-score of the enrichment rate within one screen of 711 sequences
chain 1 L10F | 0.606 Z-score of the enrichment rate within one screen of 711 sequences
chain 1 L10Y | -0.115 Z-score of the enrichment rate within one screen of 711 sequences
chain 1 R7A, chain 1 L10A | -0.455 Z-score of the enrichment rate within one screen of 711 sequences
chain 1 A15Y | 1.64 Z-score of the enrichment rate within one screen of 711 sequences
chain 1 A15H | 1.57 Z-score of the enrichment rate within one screen of 711 sequences

Variant | screen value
chain 1 A15L | 1.8 Z-score of the enrichment rate within one screen of 711 sequences
chain 1 A15G | 1.63 Z-score of the enrichment rate within one screen of 711 sequences
chain 1 A15M | 1.57 Z-score of the enrichment rate within one screen of 711 sequences
chain 1 A15P | 1.61 Z-score of the enrichment rate within one screen of 711 sequences
chain 1 A15R | 1.69 Z-score of the enrichment rate within one screen of 711 sequences
chain 1 L14C | 1.27 Z-score of the enrichment rate within one screen of 711 sequences
chain 1 L14G | 0.653 Z-score of the enrichment rate within one screen of 711 sequences
chain 1 L14V | 0.826 Z-score of the enrichment rate within one screen of 711 sequences
chain 1 L14N | 0.512 Z-score of the enrichment rate within one screen of 711 sequences
chain 1 L14E | 0.365 Z-score of the enrichment rate within one screen of 711 sequences
chain 1 L14Q | 0.637 Z-score of the enrichment rate within one screen of 711 sequences
chain 1 L14M | 0.805 Z-score of the enrichment rate within one screen of 711 sequences
chain 1 L14W | 1.36 Z-score of the enrichment rate within one screen of 711 sequences
chain 1 L14S | 0.942 Z-score of the enrichment rate within one screen of 711 sequences
chain 1 T9A, chain 1 L14A | 0.13 Z-score of the enrichment rate within one screen of 711 sequences
chain 1 Q11K | 1.58 Z-score of the enrichment rate within one screen of 711 sequences
chain 1 Q11L | 1.67 Z-score of the enrichment rate within one screen of 711 sequences
chain 1 Q11D | 1.71 Z-score of the enrichment rate within one screen of 711 sequences
chain 1 Q11M | 1.43 Z-score of the enrichment rate within one screen of 711 sequences
chain 1 Q11V | 1.38 Z-score of the enrichment rate within one screen of 711 sequences
chain 1 Q11R | 1.59 Z-score of the enrichment rate within one screen of 711 sequences
chain 1 L10A, chain 1 N16A | -0.696 Z-score of the enrichment rate within one screen of 711 sequences
chain 1 Q4W | 1.2 Z-score of the enrichment rate within one screen of 711 sequences
chain 1 Q4S | 2.02 Z-score of the enrichment rate within one screen of 711 sequences
chain 1 Q4N | 1.28 Z-score of the enrichment rate within one screen of 711 sequences
